Here are results for one protein from article doi:10.1101/2022.05.16.492059 (bioRxiv, 2022).

The term stoichiometry N denotes the number of molecules, sites or subunits per partner or assembly.

The data set deals with the molecule itself. As to the kind of experiment: SEC-MALS. (In general: In gel filtration, larger molecules generally elute earlier.)

B1: PGL-3 (1-452) (domain or fragment, C. elegans, UniProt G5EBV6 1-452, looked up)
chain: MEANKRQIVEVDGIKSYFFPHLAHYLASNDELLVNNIAQANKLAAFVLGATDKRPSNEEIAEMILPNDSSAYVLAAGMDVCLILGDDFRPKFDSGAEKLSQLGQAHDLAPIIDDEKKISMLARKTKLKKSNDAKILQVLLKVLGAEEAEEKFVELSELSSALDLDFDVYVLAKLLGFASEELQEEIEIIRDNVTDAFEACKPLLKKLMIEGPKIDSVDPFTQLLLTPQEESIEKAVSHIVARFEEASAVEDDESLVLKSQLGYQLIFLVVRSLADGKRDASRTIQSLMPSSVRAEVFPGLQRSVFKSAVFLASHIIQVFLGSMKSFEDWAFVGLAEDLESTWRRRAIAELLKKFRISVLEQCFSQPIPLLPQSELNNETVIENVNNALQFALWITEFYGSESEKKSLNQLQFLSPKSKNLLVDSFKKFAQGLDSKDHVNRIIESLEKSSSSE
With B1, the “stoichiometry N” value stood at 2.
